According to US20230173091A1 (published 2023):

Target: T1, CD20 (Acro Biosystems) (UniProt P11836 1-297)
T1 sequence (looked up): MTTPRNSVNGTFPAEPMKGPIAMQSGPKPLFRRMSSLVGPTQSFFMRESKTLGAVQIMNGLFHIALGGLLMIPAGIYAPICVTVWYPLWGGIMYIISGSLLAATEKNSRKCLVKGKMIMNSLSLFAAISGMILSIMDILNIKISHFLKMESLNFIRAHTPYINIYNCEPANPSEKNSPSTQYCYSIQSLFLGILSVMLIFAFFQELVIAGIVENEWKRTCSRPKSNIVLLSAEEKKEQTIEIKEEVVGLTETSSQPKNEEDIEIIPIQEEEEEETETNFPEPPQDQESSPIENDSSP

B1: rituximab (antibody, human IgG1, kappa, V domains shown)
VH: QVQLQQPGAELVKPGASVKMSCKASGYTFTSYNMHWVKQTPGRGLEWIGAIYPGNGDTSYNQKFKGKATLTADKSSSTAYMQLSSLTSEDSAVYYCARSTYYGGDWYFNVWGAGTTVTVSA
VL: QIVLSQSPAILSASPGEKVTMTCRASSSVSYIHWFQQKPGSSPKPWIYATSNLASGVPVRFSGSGSGTSYSLTISRVEAEDAATYYCQQWTSNPPTFGGGTKLEIKR
Kd: < 1 pM | koff: < 1e-07 s⁻¹ | kon: 140000 M⁻¹ s⁻¹
